Experimental findings from the emibetuzumab library of Makowski et al. (2022) are described below.

Sequences and labels used below:
B1: VH:VL chains; a variant is named by its letters at X, in order (parent)
chain 1: QVQLVQSGAEVKKPGASVKVSCKASGYTFTDYXMHWVRQAPGQGLEWMGXVNPNXXXTTYNQKFEGRVTMTTDTSTSTAYMELRSLRSDDTAVYYCARXNXLDXWGQGTTVTVSS
chain 2: DIQMTQSPSSLSASVGDRVTITCSVSSSVSSIYLHWYQQKPGKAPKLLIYSTSNLASGVPSRFSGSGSGTDFTLTISSLQPEDFATYYCQVYSGYPLTFGGGTKVEIK

Variants of B1 are the subject of this data set. As to the kind of experiment: yeast display scFab, FACS + sequencing. The procedure, abridged:
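Heavy-chain CDR mutant scFab yeast surface library, FACS-sorted after labelling with biotinylated ovalbumin (260 μg/mL in PBSB, 3 h, room temperature) or soluble membrane proteins (130 μg/mL, 20 min on ice), plus anti-Myc. Gates collected the top 25% and bottom 10% of binders, and samples from two replicates were deep sequenced. Non-specific binding call: a sequence was positive if found in ≥3 of 4 positive samples (membrane protein and ovalbumin pooled) and no negatives, and negative by the converse rule.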
On to VTGEDSLD, for which the non-specific binding call was “no binding”.

With YRTRSAWD, the non-specific binding call is “binds”.

Consider FRTRDSLD, for which the non-specific binding call is “binds”.

Turning to VTGEDSSD, the non-specific binding call is “no binding”.

As to YTGGADAV, the non-specific binding call is “no binding”.

Take VTATADWA: the non-specific binding call is given as “no binding”.

For the variant FTEEGAGD, the non-specific binding call was “no binding”.

With YTATGFAV, the non-specific binding call is “binds”.

Turning to YTEGDDGV, the non-specific binding call is “no binding”.

On to YTEGDDGA, for which the non-specific binding call is listed as “no binding”.

For the variant YTEGDDGD, the non-specific binding call is listed as “no binding”.

Turning to STAEDFVV, the non-specific binding call is reported as “no binding”.

On to VTGANDWV, for which the non-specific binding call is given as “no binding”.

DRTTNAGD: the non-specific binding call is recorded as “no binding”.

For the variant DTERDDAV, the non-specific binding call is given as “no binding”.

With VTEEGDWV, the non-specific binding call is listed as “no binding”.

As for ATGANAAV, the non-specific binding call was “no binding”.

Regarding STEGDAGA, the non-specific binding call is “no binding”.

For VRTRAAVD, the non-specific binding call is on record as “binds”.

With VTEGGSVD, the non-specific binding call is listed as “binds”.

On to ATGEGDWS, for which the non-specific binding call is reported as “no binding”.

VTGEDDAV: the non-specific binding call is given as “no binding”.

Regarding VTGEDDAA, the non-specific binding call is recorded as “no binding”.

Regarding VRTRSFGA, the non-specific binding call is “binds”.

For the variant VTGEDAVV, the non-specific binding call is “no binding”.

Take DTAGDAVV: the non-specific binding call is “no binding”.

On to VTGEDSGV, for which the non-specific binding call is recorded as “no binding”.

With YTGEGDGV, the non-specific binding call was “no binding”.

ATATADWA: the non-specific binding call is recorded as “no binding”.

Take YTARGSAA: the non-specific binding call was “binds”.

With DTEGDAGD, the non-specific binding call is “no binding”.

For the variant YTEGDDWY, the non-specific binding call is “no binding”.

VTERDDAV: the non-specific binding call is listed as “no binding”.

Regarding VTGEDDWD, the non-specific binding call is given as “no binding”.

Turning to VTGEDDWV, the non-specific binding call was “no binding”.

Regarding VTGEDDWY, the non-specific binding call was “no binding”.

Turning to YTAGSDVA, the non-specific binding call is “no binding”.

In the case of FTGGASGV chain 1 V111I, the non-specific binding call is “no binding”.

Turning to YTERNFGV, the non-specific binding call is listed as “binds”.

For YRTRDVGF, the non-specific binding call is “binds”.

For YRTRGSWD, the non-specific binding call was “binds”.

As for VTEEGSSV, the non-specific binding call is on record as “no binding”.

Regarding VTAGDDAV, the non-specific binding call is “no binding”.

For the variant ATGGAAGD, the non-specific binding call was “no binding”.

Turning to YRTRSSAV, the non-specific binding call is on record as “binds”.

Regarding SRTRGFGS, the non-specific binding call was “binds”.

As to YRTRGALS, the non-specific binding call is given as “binds”.

Regarding YRTRGALA, the non-specific binding call is “binds”.

For the variant FRTRGSSD, the non-specific binding call is recorded as “binds”.

For the variant YRTRSSVS, the non-specific binding call was “binds”.

Regarding DTAESDLD, the non-specific binding call was “no binding”.

Take FRTRDAGD: the non-specific binding call was “no binding”.

In the case of VTGESDWY, the non-specific binding call was “no binding”.

In the case of VTGEGALV, the non-specific binding call is reported as “no binding”.

Regarding VRTRASVD, the non-specific binding call is “binds”.

For YTGEGSWV, the non-specific binding call is given as “no binding”.

For the variant VTGEDAGA, the non-specific binding call is “no binding”.

Take VTGEDAGD: the non-specific binding call is recorded as “no binding”.

Consider VTGEDAGS, for which the non-specific binding call is reported as “no binding”.

As to ATGEGDGV, the non-specific binding call is recorded as “no binding”.

In the case of STAEDDWV, the non-specific binding call is on record as “no binding”.

Take FRTKSDLA: the non-specific binding call was “no binding”.

Consider YRTRSAVV, for which the non-specific binding call is “binds”.

On to YRTRSAVY, for which the non-specific binding call is recorded as “binds”.

For VTGEDDGS, the non-specific binding call is recorded as “no binding”.

VTGEDDGD: the non-specific binding call was “no binding”.

Regarding YTEETDGF, the non-specific binding call is listed as “binds”.

With FRTRDALD, the non-specific binding call is “binds”.

YTGEADAS: the non-specific binding call is “no binding”.

For the variant ATGEADAS, the non-specific binding call is on record as “no binding”.

Turning to VTAGDDGS, the non-specific binding call is “no binding”.

Take VTAGDDGV: the non-specific binding call is “no binding”.

Consider DTAGDAAV, for which the non-specific binding call is “no binding”.

As for VRTRGSWD, the non-specific binding call is on record as “binds”.

As for DTAESSSF, the non-specific binding call is “no binding”.

Regarding VRTRGAVD, the non-specific binding call is recorded as “binds”.

With YRTRDDVY, the non-specific binding call is “no binding”.

Regarding YRTRDDVV, the non-specific binding call is “no binding”.

Regarding FTARSAGF, the non-specific binding call is “binds”.

With YTARGVSF, the non-specific binding call is “binds”.

As for DTATADWA, the non-specific binding call is listed as “no binding”.

With DTGEDDVY, the non-specific binding call was “no binding”.

Regarding VTGGDALA, the non-specific binding call was “no binding”.

YTARDVGV: the non-specific binding call is on record as “binds”.

For ARTKGSGY, the non-specific binding call was “binds”.

For FTGEDDVY, the non-specific binding call is “no binding”.

In the case of FRTRGAAA, the non-specific binding call is “binds”.

Take YRTRGAGA: the non-specific binding call was “binds”.

Consider YRTRGAGD, for which the non-specific binding call is listed as “binds”.

On to YRTRGAGV, for which the non-specific binding call is recorded as “binds”.

Take YTAGSDGV: the non-specific binding call is “no binding”.

In the case of YTAGSDGA, the non-specific binding call is “no binding”.

With VTEGDAGD, the non-specific binding call is reported as “no binding”.

Turning to VTEGDAGA, the non-specific binding call was “no binding”.

For the variant ATGANAGD, the non-specific binding call is listed as “no binding”.

Turning to VTEGDDVF, the non-specific binding call is on record as “no binding”.

Take DTEGGSAS: the non-specific binding call is “no binding”.

With VTEEGSWV, the non-specific binding call is “no binding”.

With ARTRTAWY, the non-specific binding call is listed as “binds”.

Turning to STEASYLS, the non-specific binding call is on record as “no binding”.

Consider YRTRDAWV, for which the non-specific binding call is on record as “binds”.

As to FRTRDSAA, the non-specific binding call is “binds”.

Regarding YTAAADLV, the non-specific binding call is “binds”.

Regarding VRTRGSGV, the non-specific binding call was “binds”.

Consider FTGEAAGD, for which the non-specific binding call is reported as “no binding”.

Take STAESSSF: the non-specific binding call is “no binding”.

As for YTEGDFAV, the non-specific binding call is listed as “no binding”.

ATGGDDGF: the non-specific binding call is on record as “no binding”.

VRTRGYLA: the non-specific binding call was “binds”.

Regarding VTAGDDVY, the non-specific binding call is given as “no binding”.

For VTAGDDVA, the non-specific binding call was “no binding”.

With VRTRGSSS, the non-specific binding call was “binds”.

For the variant DTGANDWV, the non-specific binding call was “no binding”.

As for YRTRGYAV, the non-specific binding call is “binds”.

Consider DTGGDAGV, for which the non-specific binding call is “no binding”.
